According to the supplement of paper PMC9170038:

Tested on: K4 kissing-loop RNA reporter
Test: apparent KD of K4 kissing-loop reporter; higher = weaker reporter binding
Settings: Eterna round: R107
Experimental: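 RNA-MaP round R107: designed RNA switches with theophylline, tryptophan, arginine or FMN aptamers are transcribed on-chip within common flanks. They are titrated with a labelled K4 kissing-loop RNA reporter in RNA-MaP buffer (100 mM Tris pH 7.5, 80 mM KCl, 4 mM MgCl2), without ligand or with the indicated ligand. Median apparent KD per design.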

[1] = input ligand: theophylline 20 uM
[2] = input ligand: tryptophan 2.4 mM
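Note: bound reporter read as fluorescence of individual clusters on recovered sequencing chips by microscopy, with normalized cluster intensities fitted with a binding model.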

Sequence	apparent KD of K4 kissing-loop reporter (input ligand: FMN 200 uM) [nM]	apparent KD of K4 kissing-loop reporter (input ligand: arginine 13.2 mM) [nM]	apparent KD of K4 kissing-loop reporter (input ligand: none) [nM]	apparent KD of K4 kissing-loop reporter [1] [nM]	apparent KD of K4 kissing-loop reporter [2] [nM]
CUUUUACAGUCGGCCGCCACUGACAGCACUUCAAAGACAGUAUAAGGGUAGUGAUGUUACUUUAUCAGGACCGGGACUACCUAAC [theeternabot_sameState_KL_Trp_B_3]	215	121	205	279	358
AAUACGAAGCAGUGAUGUUGCUUAUGAGAAGGAGCGCACGAAAGUGCAGGUAGGUCGCUCAGCCAUGUGGACGAAAACGUCCACA [whbob_SS_Arginine_A_sa109]	83.3	102	89.2	102	80.5
UAUUGCCACAGAGUGAUGUUCUGGCCGGAUACCAGCAUGCAAUUAUGCCCUUGGCAGCCGGAUGCGCGUCCAGCCACCGGGCCUG [theeternabot_exclusion_KL_Theo_A_29]	1510	783	1310	1280	1140
AACCACUCGUUACAUCACUAUCGAGUGGAACGAGGACCGGUACGGCCGCCACUCGGUAUCUUGCAGUGAUGUUGCAAGAAAGAAU [KL-SSTryp-A #dotplot2 strengthened]	212	199	256	164	163
AAGGGCUAGGCGGCCGCCACUGGUCGUGUACACAUACGAACCAGUGAUGUUGGUAUUGUAUGCGACAGGACCGGGCCUAGCCGAA [Exclusion - Tryptophan B (Freestyle 27)]	313	194	249	364	291
UGGAGUUGACGAAAAGUCAACUCCUGAGAAGGAGCGGACGAAAGUCCAGGUAGGUCGCUCACUACCAGUGAUGUUGGUACUAAAA	160	157	141	66.6	203
CCGAUGGGUACAGGAUAUGCCAGUGAUGUUGGUUUAGAUGGACCCAGAAGGAGACACCAGACGGAGGCAGAAGGGUAGCAAGGGA [Raarriis]	140	108	106	100	105
AGACUACCACACUGUCAAUAGACAGUGAACUAGGAUAUGCUGAUAAGCAGAAGGAGUGAUGUUCCGAGGUAGUCAAUAAAAUAAU [FmnAX 13 G66]	281	246	287	334	289
ACCAUCAAAGAUGGCCAGGACUCAACUGAUACCAGAGUGGAAACACUCCCUUGGCAGCAGGUGAGUGAUGUUCACGAGUCCUGGA [Omel KL Theo A SS B v8]	942	786	982	522	787
AAGAGGUAGGCGGCCGCCACUUGUUGUGAACACAUACGAGCCAGUGAUGUUGGUAUUGUGUGCGGAAGGACCGGGCCUACCUGAA [Exclusion - Tryptophan B (Freestyle 21)]	146	173	136	46	140
GGCCAAAGAGAGUGAUGUUCUCAAUAUGAAGGAGCGCCCGAAAGGGCAGGUAGGUCGCAUAACGGCCACCUACGAAAAGUAGGAA [#SwitchBubble 4 #K4Early]	91.3	96.6	94.5	109	96.5
UUAUAUAAGGGAAGGAGCGCGUGGGCGCAGUGAUGUUGCGCCCGACAUCACUUCAACUUAACGCAGGUAGGUCGCCCUUUUAAUA [Arginine B (Excl) V4]	188	194	209	206	209
UAGUCCUAGUGAUCCUUAUCAAGUGGUGGGCGAGGACCGGUACGGCCGCCACUCGACUAUGCAGUGAUGUUGCAAUCCGGACAAU [Exclusion - Tryptophan A (Freestyle 13)]	191	211	194	243	179
AAUAAGGUCGCCGAUACCAGCGCAGGCAGAGCAAAGCUCUGCCGGGUAGUGAUGUUACCGCGCCCUUGGCAGCGGUGGCACGACC [Omei KL Theo B SS C v1]	579	435	340	398	275
GCCGUACGCAUGGAUACCAGUCUACAUCGCAGUGAUGUUGCGUAGUUCAGAUAGAUUGCCGACCCUUGGCAGCCAUGCGUACGGC	133	109	111	109	114
CCUAUCUCUUACGAUACCAGUCAAUGAUAUUUUAUCAAUGCCCUCACCGAGUGAUGUUCGGACCCUUGGCAGCGUCUGGGAUAGG [pvppimullin]	223	170	212	190	191
UAGAGUCACAAGACAGUGAUGUUGUCUACUGAGGAUAUCAUGAAUAUGAGAAGGCAGUGUUGGAGGUCUCUAACAACAGACUCUG [FMN A SS t3]	237	227	389	370	280
